# Experimental data from publication PMC4436075 (mBio, 2015).
# Biological target: the molecule itself
# Assay: cross-linking
protein,measurement,value
"Alg44-6His (natural protein, Pseudomonas aeruginosa, UniProt Q9HY69 1-389, looked up) MNTAVNVNVVHESEAQRQFARVKLPARIRYIGANREGVDARLLDLSAGGFAFTASGAPIQPGDLYKGKLLFQVDSISFSLEVEFQVRSVDPASRRVGCEFQNLKPREVAALRYLITSYLAGEVIGVGDMLNTLQRENFTKARKQGGGNGGMGFFGRVRAVTLSTAIFVVGVGAFAFILNQMYNLYFVTHADSGVVSVPNQQITMPREGTVQSLLGPNAEVAKGAPIATFSANLLDMLKGNLTEEQLNPGNIEKLFGHQMKGTLTSPCDCRVVQQLVADGQYANKGQVIFTLAPRDSVASIEARFPYRNAAELAPGTRVNFQVAGDGVNRSGRIVNTAPVDGDLSSEIRVQIQPDQPLDAQYAGRPAEVSIGGLPGRTLLNKAVTLATAR",stoichiometry N,2
